Measurements: EP4714976A1

Key:
[1] = biological target: extracellular domain of FGFR2c protein (Example 1) (UniProt P21802); assay: phage ELISA
[2] = biological target: extracellular domain of the FGFR2b protein (NP_075259.4) (UniProt P21802); assay: phage ELISA
Sequence of extracellular domain of the FGFR2b protein (NP_075259.4) (P21802 other isoform, or with tags, fused parts or gaps): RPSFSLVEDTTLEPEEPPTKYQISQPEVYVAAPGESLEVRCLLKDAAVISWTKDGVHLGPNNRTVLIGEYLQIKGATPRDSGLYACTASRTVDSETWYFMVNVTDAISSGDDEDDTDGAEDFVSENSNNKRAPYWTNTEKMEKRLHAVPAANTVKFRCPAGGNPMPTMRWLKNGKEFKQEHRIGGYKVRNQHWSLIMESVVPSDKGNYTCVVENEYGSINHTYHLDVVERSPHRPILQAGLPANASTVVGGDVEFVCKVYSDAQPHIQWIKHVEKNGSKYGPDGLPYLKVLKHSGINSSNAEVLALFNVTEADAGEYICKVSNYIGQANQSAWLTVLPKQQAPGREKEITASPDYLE

Sequence of extracellular domain of FGFR2c protein (Example 1) (P21802 22-377): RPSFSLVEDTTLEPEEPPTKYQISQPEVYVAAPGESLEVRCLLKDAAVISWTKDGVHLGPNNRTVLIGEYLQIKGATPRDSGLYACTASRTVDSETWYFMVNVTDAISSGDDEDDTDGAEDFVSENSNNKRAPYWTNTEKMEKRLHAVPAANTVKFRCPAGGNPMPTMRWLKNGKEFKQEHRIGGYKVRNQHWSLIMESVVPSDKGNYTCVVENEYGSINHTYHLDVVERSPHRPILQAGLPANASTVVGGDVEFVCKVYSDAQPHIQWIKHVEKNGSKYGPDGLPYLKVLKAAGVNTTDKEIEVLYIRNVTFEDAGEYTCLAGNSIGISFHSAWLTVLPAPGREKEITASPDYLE

- OD (450 nm) value [1]: 0.045
- OD (450 nm) value [2]: 0.024
Substance: Negative control (Tables 1 and 2) (antibody)
